Measurements: patent publication US20110135656A1

Target: C5a receptor (mouse) (UniProt P30993)
Assay: cell-based or functional assay

C5a receptor (mouse), sequence (P30993 whole entry): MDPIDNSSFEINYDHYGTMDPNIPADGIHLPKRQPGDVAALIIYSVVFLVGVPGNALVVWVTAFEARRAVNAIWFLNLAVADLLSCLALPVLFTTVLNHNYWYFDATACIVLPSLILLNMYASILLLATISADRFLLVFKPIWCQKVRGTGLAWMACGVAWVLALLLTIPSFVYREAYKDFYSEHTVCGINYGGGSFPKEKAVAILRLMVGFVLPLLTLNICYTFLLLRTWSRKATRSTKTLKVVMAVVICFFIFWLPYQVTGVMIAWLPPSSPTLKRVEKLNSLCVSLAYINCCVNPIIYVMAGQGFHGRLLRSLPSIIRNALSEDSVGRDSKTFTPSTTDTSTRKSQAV

“Murine C5a (from UniProt P06684 679-755) (ligand)” gave a 6 hr viability of C5-deficient or C3-/- T cells in serum-free medium of 25%.
